Consider two substances from patent US20030135878.

For this data set, the target named is wheat thioredoxin h (WTRXh), 13.5-kDa protein encoded by the 384-bp wtrxh fragment (UniProt O64394).
Chain of wheat thioredoxin h (WTRXh), 13.5-kDa protein encoded by the 384-bp wtrxh fragment (O64394 whole entry, the tested form may be a part): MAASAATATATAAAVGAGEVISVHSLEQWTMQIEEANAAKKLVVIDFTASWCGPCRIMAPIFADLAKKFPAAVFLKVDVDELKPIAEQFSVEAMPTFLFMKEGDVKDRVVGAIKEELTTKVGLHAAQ

In turn, “Arabidopsis thaliana NTR (NADP-thioredoxin reductase)” gave a Relative reduction of albumin-fraction proteins (mBBr fluorescence/protein), Homozygous/Null Segregant, +NADPH/NTR (fold (Homozygous/Null Segregant)) of 3.91.

In the case of barley NTR (NADP-thioredoxin reductase), the “reduction of DTNB [5,5'-dithiobis(2-nitrobenzoic acid)] via NTR and thioredoxin” value is “confirmed the ability of barley NTR to reduce wheat thioredoxin h (data not shown)”.
